Measured values taken from paper PMC6098130.

Target: IgM-BCR (Ighm) (mouse (endogenous in primary B cells))

- median diffusion coefficient of IgM in galectin-9-high regions (against 0.028 μm^2/s in galectin-9-low regions), single-particle tracking on Gal9-KO B cells treated with fluorescently labeled rGal9: 0.012 μm^2/s
Substance: recombinant mouse galectin-9 (rGal9, E. coli-derived, R&D Systems) (from UniProt O08573 1-353) (natural protein)
